According to patent publication US20260007772A1:

Molecular target: Neutrophil elastase enzyme (Neutrophil Elastase Colorimetric Drug Discovery Kit, Enzo Life Sciences) (UniProt P08246)
Assay: cell-based or functional assay

Chain of UniProt P08246 (P08246 30-247 limits assumed): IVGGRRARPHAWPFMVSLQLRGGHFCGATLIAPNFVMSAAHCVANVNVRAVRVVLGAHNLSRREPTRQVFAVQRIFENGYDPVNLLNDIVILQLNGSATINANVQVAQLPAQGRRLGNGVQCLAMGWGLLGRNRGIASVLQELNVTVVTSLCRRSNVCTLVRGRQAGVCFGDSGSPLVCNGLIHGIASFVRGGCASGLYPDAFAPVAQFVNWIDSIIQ

Average % Inhibition (Percent inhibition of Neutrophil Elastase in purified serum samples): 95.6%
Substance: endogenous A1AT of wild type mice (from UniProt O89094 168-257)
